In IntAct's records for PubMed 19103591:

B1: Anti-sigma-E factor RseA (Escherichia coli (strain K12)), P0AFX7 (parent)
chain: MQKEQLSALMDGETLDSELLNELAHNPEMQKTWESYHLIRDSMRGDTPEVLHFDISSRVMAAIEEEPVRQPATLIPEAQPAPHQWQKMPFWQKVRPWAAQLTQMGVAACVSLAVIVGVQHYNGQSETSQQPETPVFNTLPMMGKASPVSLGVPSEATANNGQQQQVQEQRRRINAMLQDYELQRRLHSEQLQFEQAQTQQAAVQVPGIQTLGTQSQ
partner: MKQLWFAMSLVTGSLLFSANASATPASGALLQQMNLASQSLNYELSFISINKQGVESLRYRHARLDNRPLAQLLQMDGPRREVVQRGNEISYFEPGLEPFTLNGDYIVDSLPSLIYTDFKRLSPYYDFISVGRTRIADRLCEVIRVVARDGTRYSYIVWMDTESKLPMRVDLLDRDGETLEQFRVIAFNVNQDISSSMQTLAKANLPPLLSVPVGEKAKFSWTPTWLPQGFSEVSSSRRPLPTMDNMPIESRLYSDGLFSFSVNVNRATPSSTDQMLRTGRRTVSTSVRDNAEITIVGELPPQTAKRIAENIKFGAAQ

Variants of: B1
Conditions: with rseb_ecoli rseB

Variant | effect of a mutation on the interaction
MQKEQLSALMDGETLDSELLNELAHNPEMQKTWESYHLIRDSMRGDTPEVLHFDISSRVMAAIEEEPVRQPATLIPEAQPAPHQWQKMPFWQKVRPWAAQLTQMGVAACVSLAVIVGVQHYNGQSETSQQPETPVFNTLPMMGKASPVSLGVPSEATANNGQQQQVQEQRRRINAMLQDYELQRALHSEQLQFEQAQTQQAAVQVPGIQTLGTQSQ [R185A] | decreasing interaction
MQKEQLSALMDGETLDSELLNELAHNPEMQKTWESYHLIRDSMRGDTPEVLHFDISSRVMAAIEEEPVRQPATLIPEAQPAPHQWQKMPFWQKVRPWAAQLTQMGVAACVSLAVIVGVQHYNGQSETSQQPETPVFNTLPMMGKASPVSLGVPSEATANNGQQQQVQEQRRRINAMLQDYELQRRAHSEQLQFEQAQTQQAAVQVPGIQTLGTQSQ [L186A] | decreasing interaction
MQKEQLSALMDGETLDSELLNELAHNPEMQKTWESYHLIRDSMRGDTPEVLHFDISSRVMAAIEEEPVRQPATLIPEAQPAPHQWQKMPFWQKVRPWAAQLTQMGVAACVSLAVIVGVQHYNGQSETSQQPETPVFNTLPMMGKASPVSLGVPSEATANNGQQQQVQEQRRRINAMLQDYELQRRLASEQLQFEQAQTQQAAVQVPGIQTLGTQSQ [H187A] | decreasing interaction
MQKEQLSALMDGETLDSELLNELAHNPEMQKTWESYHLIRDSMRGDTPEVLHFDISSRVMAAIEEEPVRQPATLIPEAQPAPHQWQKMPFWQKVRPWAAQLTQMGVAACVSLAVIVGVQHYNGQSETSQQPETPVFNTLPMMGKASPVSLGVPSEATANNGQQQQVQEQRRRINAMLQDYELQRRLHAEQLQFEQAQTQQAAVQVPGIQTLGTQSQ [S188A] | decreasing interaction

Variants of: B1
Conditions: with rseb_ecoli rseB
Remark: another data set of the same source

Variant | effect of a mutation on the interaction
MQKEQLSALMDGETLDSELLNELAHNPEMQKTWESYHLIRDSMRGDTPEVLHFDISSRVMAAIEEEPVRQPATLIPEAQPAPHQWQKMPFWQKVRPWAAQLTQMGVAACVSLAVIVGVQHYNGQSETSQQPETPVFNTLPMMGKASPVSLGVPSEATANNGQQQQVQEQRRRANAMLQDYELQRRLHSEQLQFEQAQTQQAAVQVPGIQTLGTQSQ [I173A] | decreasing interaction
MQKEQLSALMDGETLDSELLNELAHNPEMQKTWESYHLIRDSMRGDTPEVLHFDISSRVMAAIEEEPVRQPATLIPEAQPAPHQWQKMPFWQKVRPWAAQLTQMGVAACVSLAVIVGVQHYNGQSETSQQPETPVFNTLPMMGKASPVSLGVPSEATANNGQQQQVQEQRRRINAMLQDYELQRRLHSAQLQFEQAQTQQAAVQVPGIQTLGTQSQ [E189A] | decreasing interaction

Variants of: B1
Conditions: with rseb_ecoli rseB
Remark: another data set of the same source

Variant | effect of a mutation on the interaction
MQKEQLSALMDGETLDSELLNELAHNPEMQKTWESYHLIRDSMRGDTPEVLHFDISSRVMAAIEEEPVRQPATLIPEAQPAPHQWQKMPFWQKVRPWAAQLTQMGVAACVSLAVIVGVQHYNGQSETSQQPETPVFNTLPMMGKASPVSLGVPSEATANNGQQQQVQEQRRRCNAMLQDYELQRRLHSEQLQFEQAQTQQAAVQVPGIQTLGTQSQ [I173C] | increasing interaction strength
MQKEQLSALMDGETLDSELLNELAHNPEMQKTWESYHLIRDSMRGDTPEVLHFDISSRVMAAIEEEPVRQPATLIPEAQPAPHQWQKMPFWQKVRPWAAQLTQMGVAACVSLAVIVGVQHYNGQSETSQQPETPVFNTLPMMGKASPVSLGVPSEATANNGQQQQVQEQRRRINAMLQCYELQRRLHSEQLQFEQAQTQQAAVQVPGIQTLGTQSQ [D179C] | increasing interaction strength
MQKEQLSALMDGETLDSELLNELAHNPEMQKTWESYHLIRDSMRGDTPEVLHFDISSRVMAAIEEEPVRQPATLIPEAQPAPHQWQKMPFWQKVRPWAAQLTQMGVAACVSLAVIVGVQHYNGQSETSQQPETPVFNTLPMMGKASPVSLGVPSEATANNGQQQQVQEQRRRINAMLQDYELQRRCHSEQLQFEQAQTQQAAVQVPGIQTLGTQSQ [L186C] | increasing interaction strength

Variants of: B1
Conditions: with rseb_ecoli rseB
Remark: another data set of the same source

Variant | effect of a mutation on the interaction
MQKEQLSALMDGETLDSELLNELAHNPEMQKTWESYHLIRDSMRGDTPEVLHFDISSRVMAAIEEEPVRQPATLIPEAQPAPHQWQKMPFWQKVRPWAAQLTQMGVAACVSLAVIVGVQHYNGQSETSQQPETPVFNTLPMMGKASPVSLGVPSEATANNGQQQQVQEQRRRINAMLQDYELQRRLCSEQLQFEQAQTQQAAVQVPGIQTLGTQSQ [H187C] | increasing interaction strength
